Laboratory results as given in IntAct's records for PubMed 15328353.

B1: Plasma serine protease inhibitor (Mus musculus), P70458 (parent)
chain: MRFFPILCLVLFISHGVASRRHSHSKKKKAKESSVGAVGPPSSKDFAFRLYRALVSESPGQNVFFSPLSVSMSLGMLSLGAGLKTKTQILDGLGLSLQQGQEDKLHKGFQQLLQRFRQPSDGLQLSLGSALFKDPAVHIRDDFLSAMKTLYMSDTFSTNFGNPEIAKKQINNYVAKQTKGKIVDFIKDLDSTHVMIVVNYIFFKAKWQTAFSETNTHKMDFHVTPKRTTQVPMMNREDGYSYYLDQNISCTVVGIPYQGNAIALFILPSEGKMKQVEDGLDERTLRNWLKMFTKRRLDLYLPKFSIEATYKLENVLPKLGIQDVFTTHADLSGITDHTNIKLSEMVHKSMMEVEESGTTAAAITGAIFTFRSARPSSLKIEFTRPFLLTLMEDSHILFVGKVTRP
partner: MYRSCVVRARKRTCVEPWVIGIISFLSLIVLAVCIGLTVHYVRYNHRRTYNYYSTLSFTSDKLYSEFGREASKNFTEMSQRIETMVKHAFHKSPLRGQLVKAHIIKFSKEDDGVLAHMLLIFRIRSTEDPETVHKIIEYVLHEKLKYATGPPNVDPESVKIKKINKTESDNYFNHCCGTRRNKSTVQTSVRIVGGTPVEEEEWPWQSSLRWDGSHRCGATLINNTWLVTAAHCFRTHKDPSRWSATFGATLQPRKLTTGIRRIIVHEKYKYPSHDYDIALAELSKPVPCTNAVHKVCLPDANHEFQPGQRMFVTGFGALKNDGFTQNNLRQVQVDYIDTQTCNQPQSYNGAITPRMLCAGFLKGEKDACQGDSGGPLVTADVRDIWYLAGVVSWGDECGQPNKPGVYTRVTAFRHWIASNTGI
B2: Plasminogen activator inhibitor 1 (Mus musculus), P22777 (parent)
chain: MQMSSALACLILGLVLVSGKGFTLPLRESHTAHQATDFGVKVFQQVVQASKDRNVVFSPYGVSSVLAMLQMTTAGKTRRQIQDAMGFKVNEKGTAHALRQLSKELMGPWNKNEISTADAIFVQRDLELVQGFMPHFFKLFQTMVKQVDFSEVERARFIINDWVERHTKGMINDLLAKGAVDELTRLVLVNALYFSGQWKTPFLEASTHQRLFHKSDGSTVSVPMMAQSNKFNYTEFTTPDGLEYDVVELPYQRDTLSMFIAAPFEKDVHLSALTNILDAELIRQWKGNMTRLPRLLILPKFSLETEVDLRGPLEKLGMPDMFSATLADFTSLSDQEQLSVAQALQKVRIEVNESGTVASSSTAFVISARMAPTEMVIDRSFLFVVRHNPTETILFMGQVMEP
partner: B1 partner

Variants of: B1
Conditions: with tm11e_mouse Tmprss11e

Row | Variant | effect of a mutation on the interaction
1 | R374A | decreasing interaction

Variants of: B2
Conditions: with tm11e_mouse Tmprss11e

Row | Variant | effect of a mutation on the interaction
2 | T356R;A358R | decreasing interaction
3 | R369A | decreasing interaction
